*1 amine or outer side, *2 acyl side, *3 side chain or, on linkers, in order; H or OH if unused. Where no end group is shown, it is not given here. [ ]: non-standard residue; d: D form. Ala(piperidin-4-yl) = O=C([C@H](CC1CCN([*:3])CC1)N[*:1])[*:2]; Phe(4-guanidino) = N=C(N)Nc1ccc(C[C@H](N)C(=O)O)cc1; Phe(4-CF3) = N[C@@H](Cc1ccc(C(F)(F)F)cc1)C(=O)O
Target: T1, PACE4 (UniProt P29122 150-969, limits assumed)
T1 sequence (looked up): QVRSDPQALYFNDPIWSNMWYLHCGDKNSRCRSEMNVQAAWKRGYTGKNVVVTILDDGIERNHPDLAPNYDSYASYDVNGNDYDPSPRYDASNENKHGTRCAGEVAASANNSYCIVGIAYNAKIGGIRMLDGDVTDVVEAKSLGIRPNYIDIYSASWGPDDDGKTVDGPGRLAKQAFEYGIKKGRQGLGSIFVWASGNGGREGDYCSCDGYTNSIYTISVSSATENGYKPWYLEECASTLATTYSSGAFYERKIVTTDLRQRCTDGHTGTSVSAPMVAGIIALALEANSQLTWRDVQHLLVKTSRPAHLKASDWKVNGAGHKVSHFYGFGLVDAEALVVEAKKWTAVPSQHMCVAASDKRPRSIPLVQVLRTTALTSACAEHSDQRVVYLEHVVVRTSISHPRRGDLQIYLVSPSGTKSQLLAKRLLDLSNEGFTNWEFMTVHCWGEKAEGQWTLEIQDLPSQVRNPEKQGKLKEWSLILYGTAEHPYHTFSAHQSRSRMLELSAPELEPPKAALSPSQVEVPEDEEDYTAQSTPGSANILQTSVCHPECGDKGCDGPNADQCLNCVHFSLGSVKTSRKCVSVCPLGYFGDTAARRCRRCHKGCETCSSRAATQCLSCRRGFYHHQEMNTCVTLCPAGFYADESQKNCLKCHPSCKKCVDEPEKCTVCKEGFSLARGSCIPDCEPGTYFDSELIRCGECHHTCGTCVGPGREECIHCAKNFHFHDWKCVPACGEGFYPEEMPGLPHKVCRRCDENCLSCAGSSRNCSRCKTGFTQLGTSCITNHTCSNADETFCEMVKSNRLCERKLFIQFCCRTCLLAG
Experiment: cell-based or functional assay

B1: Ac-R-F-K-R-T-NH2 (peptide)
peptide: Ac-RFKRT-NH2
  IC50 (µM), PACE4 enzyme inhibition, fluorogenic substrate pyroGlu-Arg-Val-Lys-Arg-methyl-coumaryl-7-amide: 2 µM

B2: Ac-R-R-F(4-Guan)-K-R-dT-NH2 (peptide)
peptide: Ac-RR[Phe(4-guanidino)]KR[dT]-NH2
SMILES: CC(=O)N[C@@H](CCCNC(=N)N)C(=O)N[C@@H](CCCNC(=N)N)C(=O)N[C@@H](Cc1ccc(NC(=N)N)cc1)C(=O)N[C@@H](CCCCN)C(=O)N[C@@H](CCCNC(=N)N)C(=O)N[C@@H](C(N)=O)[C@H](C)O
  IC50 (µM), PACE4 enzyme inhibition, fluorogenic substrate pyroGlu-Arg-Val-Lys-Arg-methyl-coumaryl-7-amide: 0.018 µM

B3: Ac-dR-R-F(4-Guan)-K-R-dT-NH2 (peptide)
peptide: Ac-[dR]R[Phe(4-guanidino)]KR[dT]-NH2
SMILES: CC(=O)N[C@H](CCCNC(=N)N)C(=O)N[C@@H](CCCNC(=N)N)C(=O)N[C@@H](Cc1ccc(NC(=N)N)cc1)C(=O)N[C@@H](CCCCN)C(=O)N[C@@H](CCCNC(=N)N)C(=O)N[C@@H](C(N)=O)[C@H](C)O
  IC50 (µM), PACE4 enzyme inhibition, fluorogenic substrate pyroGlu-Arg-Val-Lys-Arg-methyl-coumaryl-7-amide: 0.015 µM

B4: Ac-R-F(4-Guan)-K-R-dT-NH2 (peptide)
peptide: Ac-R[Phe(4-guanidino)]KR[dT]-NH2
SMILES: CC(=O)N[C@@H](CCCNC(=N)N)C(=O)N[C@@H](Cc1ccc(NC(=N)N)cc1)C(=O)N[C@@H](CCCCN)C(=O)N[C@@H](CCCNC(=N)N)C(=O)N[C@@H](C(N)=O)[C@H](C)O
  IC50 (µM), PACE4 enzyme inhibition, fluorogenic substrate pyroGlu-Arg-Val-Lys-Arg-methyl-coumaryl-7-amide: 0.021 µM

B5: Ac-dR-R-A(4-Pip)-K-R-dT-NH2 (peptide)
peptide: Ac-[dR]R[Ala(piperidin-4-yl)]KR[dT]-NH2
SMILES: CC(=O)N[C@H](CCCNC(=N)N)C(=O)N[C@@H](CCCNC(=N)N)C(=O)N[C@@H](CC1CCNCC1)C(=O)N[C@@H](CCCCN)C(=O)N[C@@H](CCCNC(=N)N)C(=O)N[C@@H](C(N)=O)[C@H](C)O
  IC50 (µM), PACE4 enzyme inhibition, fluorogenic substrate pyroGlu-Arg-Val-Lys-Arg-methyl-coumaryl-7-amide: 0.12 µM

B6: P-dR-R-A(4-Pip)-K-R-dT-NH2 (peptide)
peptide: P[dR]R[Ala(piperidin-4-yl)]KR[dT]-NH2
modifications: N-terminus assumed
SMILES: C[C@H](O)[C@@H](NC(=O)[C@H](CCCNC(=N)N)NC(=O)[C@H](CCCCN)NC(=O)[C@H](CC1CCNCC1)NC(=O)[C@H](CCCNC(=N)N)NC(=O)[C@@H](CCCNC(=N)N)NC(=O)[C@@H]1CCCN1)C(N)=O
  IC50 (µM), PACE4 enzyme inhibition, fluorogenic substrate pyroGlu-Arg-Val-Lys-Arg-methyl-coumaryl-7-amide: 0.07 µM

B7: Ac-R-A(4-Pip)-K-R-dT-NH2 (peptide)
peptide: Ac-R[Ala(piperidin-4-yl)]KR[dT]-NH2
SMILES: CC(=O)N[C@@H](CCCNC(=N)N)C(=O)N[C@@H](CC1CCNCC1)C(=O)N[C@@H](CCCCN)C(=O)N[C@@H](CCCNC(=N)N)C(=O)N[C@@H](C(N)=O)[C@H](C)O
  IC50 (µM), PACE4 enzyme inhibition, fluorogenic substrate pyroGlu-Arg-Val-Lys-Arg-methyl-coumaryl-7-amide: 0.1 µM

B8: Ac-R-R-F(4-CF3)-K-R-dT-NH2 (peptide)
peptide: Ac-RR[Phe(4-CF3)]KR[dT]-NH2
SMILES: CC(=O)N[C@@H](CCCNC(=N)N)C(=O)N[C@@H](CCCNC(=N)N)C(=O)N[C@@H](Cc1ccc(C(F)(F)F)cc1)C(=O)N[C@@H](CCCCN)C(=O)N[C@@H](CCCNC(=N)N)C(=O)N[C@@H](C(N)=O)[C@H](C)O
  IC50 (µM), PACE4 enzyme inhibition, fluorogenic substrate pyroGlu-Arg-Val-Lys-Arg-methyl-coumaryl-7-amide: 0.09 µM

B9: P-dR-R-F(4-Guan)-K-R-dT-NH2 (peptide)
peptide: P[dR]R[Phe(4-guanidino)]KR[dT]-NH2
modifications: N-terminus assumed
SMILES: C[C@H](O)[C@@H](NC(=O)[C@H](CCCNC(=N)N)NC(=O)[C@H](CCCCN)NC(=O)[C@H](Cc1ccc(NC(=N)N)cc1)NC(=O)[C@H](CCCNC(=N)N)NC(=O)[C@@H](CCCNC(=N)N)NC(=O)[C@@H]1CCCN1)C(N)=O
  IC50 (µM), PACE4 enzyme inhibition, fluorogenic substrate pyroGlu-Arg-Val-Lys-Arg-methyl-coumaryl-7-amide: 0.025 µM

B10: Ac-R-R-A(4-Pip)-K-R-dT-NH2 (peptide)
peptide: Ac-RR[Ala(piperidin-4-yl)]KR[dT]-NH2
SMILES: CC(=O)N[C@@H](CCCNC(=N)N)C(=O)N[C@@H](CCCNC(=N)N)C(=O)N[C@@H](CC1CCNCC1)C(=O)N[C@@H](CCCCN)C(=O)N[C@@H](CCCNC(=N)N)C(=O)N[C@@H](C(N)=O)[C@H](C)O
  IC50 (µM), PACE4 enzyme inhibition, fluorogenic substrate pyroGlu-Arg-Val-Lys-Arg-methyl-coumaryl-7-amide: 0.09 µM

B11: dP-dR-R-A(4-Pip)-K-R-dT-NH2 (peptide)
peptide: [dP][dR]R[Ala(piperidin-4-yl)]KR[dT]-NH2
modifications: N-terminus assumed
SMILES: C[C@H](O)[C@@H](NC(=O)[C@H](CCCNC(=N)N)NC(=O)[C@H](CCCCN)NC(=O)[C@H](CC1CCNCC1)NC(=O)[C@H](CCCNC(=N)N)NC(=O)[C@@H](CCCNC(=N)N)NC(=O)[C@H]1CCCN1)C(N)=O
  IC50 (µM), PACE4 enzyme inhibition, fluorogenic substrate pyroGlu-Arg-Val-Lys-Arg-methyl-coumaryl-7-amide: 0.08 µM

B12: dP-dR-R-F(4-CF3)-K-R-dT-NH2 (peptide)
peptide: [dP][dR]R[Phe(4-CF3)]KR[dT]-NH2
modifications: N-terminus assumed
SMILES: C[C@H](O)[C@@H](NC(=O)[C@H](CCCNC(=N)N)NC(=O)[C@H](CCCCN)NC(=O)[C@H](Cc1ccc(C(F)(F)F)cc1)NC(=O)[C@H](CCCNC(=N)N)NC(=O)[C@@H](CCCNC(=N)N)NC(=O)[C@H]1CCCN1)C(N)=O
  IC50 (µM), PACE4 enzyme inhibition, fluorogenic substrate pyroGlu-Arg-Val-Lys-Arg-methyl-coumaryl-7-amide: 0.02 µM

B13: Ac-R-A(4-Pip)-K-R-T-NH2 (peptide)
peptide: Ac-R[Ala(piperidin-4-yl)]KRT-NH2
SMILES: CC(=O)N[C@@H](CCCNC(=N)N)C(=O)N[C@@H](CC1CCNCC1)C(=O)N[C@@H](CCCCN)C(=O)N[C@@H](CCCNC(=N)N)C(=O)N[C@H](C(N)=O)[C@@H](C)O
  IC50 (µM), PACE4 enzyme inhibition, fluorogenic substrate pyroGlu-Arg-Val-Lys-Arg-methyl-coumaryl-7-amide: 0.3 µM

B14: Ac-R-F(4-Guan)-K-R-T-NH2 (peptide)
peptide: Ac-R[Phe(4-guanidino)]KRT-NH2
SMILES: CC(=O)N[C@@H](CCCNC(=N)N)C(=O)N[C@@H](Cc1ccc(NC(=N)N)cc1)C(=O)N[C@@H](CCCCN)C(=O)N[C@@H](CCCNC(=N)N)C(=O)N[C@H](C(N)=O)[C@@H](C)O
  IC50 (µM), PACE4 enzyme inhibition, fluorogenic substrate pyroGlu-Arg-Val-Lys-Arg-methyl-coumaryl-7-amide: 0.023 µM

B15: Ac-dR-R-F(4-CF3)-K-R-dT-NH2 (peptide)
peptide: Ac-[dR]R[Phe(4-CF3)]KR[dT]-NH2
SMILES: CC(=O)N[C@H](CCCNC(=N)N)C(=O)N[C@@H](CCCNC(=N)N)C(=O)N[C@@H](Cc1ccc(C(F)(F)F)cc1)C(=O)N[C@@H](CCCCN)C(=O)N[C@@H](CCCNC(=N)N)C(=O)N[C@@H](C(N)=O)[C@H](C)O
  IC50 (µM), PACE4 enzyme inhibition, fluorogenic substrate pyroGlu-Arg-Val-Lys-Arg-methyl-coumaryl-7-amide: 0.04 µM

B16: Ac-R-F-K-R-NH2 (peptide)
peptide: Ac-RFKR-NH2
  IC50 (µM), PACE4 enzyme inhibition, fluorogenic substrate pyroGlu-Arg-Val-Lys-Arg-methyl-coumaryl-7-amide: 12.7 µM

B17: P-dR-R-F(4-CF3)-K-R-dT-NH2 (peptide)
peptide: P[dR]R[Phe(4-CF3)]KR[dT]-NH2
modifications: N-terminus assumed
SMILES: C[C@H](O)[C@@H](NC(=O)[C@H](CCCNC(=N)N)NC(=O)[C@H](CCCCN)NC(=O)[C@H](Cc1ccc(C(F)(F)F)cc1)NC(=O)[C@H](CCCNC(=N)N)NC(=O)[C@@H](CCCNC(=N)N)NC(=O)[C@@H]1CCCN1)C(N)=O
  IC50 (µM), PACE4 enzyme inhibition, fluorogenic substrate pyroGlu-Arg-Val-Lys-Arg-methyl-coumaryl-7-amide: 0.02 µM

Source: patent EP4789680A1, “NOVEL PACE4 INHIBITOR AND USE THEREOF IN ANTI-OSTEOARTHRITIS” (Inflamax Pharmaceuticals Limited, priority 2023, dated 2025)
